Article PMC6639331, “Reconstitution of recombinant human CCR4-NOT reveals molecular insights into regulated deadenylation”

Legend:
[1] = biological target: T1, CCR4-NOT FULL (CCR4a E240A:CAF1 D40A) (Homo sapiens, UniProt A5YKK6;Q9NZN8;O75175;Q92600;Q9ULM6;Q9UIV1;Q9H9A5;Q9UKZ1 …, E240A;D40A); experiment: EMSA; 1 uM protein, 100 nM RNA; EMSA: 20 mM Tris/HCl pH 7.5, 10 mM NaCl, 2 mM MgCl2, 0.1% BSA, 0.1% Orange G, 3% Ficoll 400; 100 nM RNA; 10% native PAGE in TBE pH 8.3; temperature not stated; conditions: protein: recombinant; tags: NOT1 N-His10 and C-StrepII x2; other tags removed; copies: 1;1;1;1;1;1;1;1; label: 5' 6-FAM
[2] = biological target: T1, CCR4-NOT FULL (CCR4a E240A:CAF1 D40A); experiment: EMSA; 1 uM protein, 100 nM RNA; preferred; EMSA: 20 mM Tris/HCl pH 7.5, 10 mM NaCl, 2 mM MgCl2, 0.1% BSA, 0.1% Orange G, 3% Ficoll 400; 100 nM RNA; 10% native PAGE in TBE pH 8.3; temperature not stated; conditions: protein: recombinant; tags: NOT1 N-His10 and C-StrepII x2; other tags removed; copies: 1;1;1;1;1;1;1;1; label: labeled

UCUAAAUAAAAAAAAAAAAAAAAAAAA (ssRNA) [7-mer-A20]
binding result [1]: binds

UUUUUUUUUUUUUUUUUUUUUUUUUUUUUU (ssRNA) [poly(U)30]
binding result [2]: binds

CACAUCCAACUUCUCUAAAUAAAAAAAAAAAAAAAAAAAA (ssRNA) [13+7-mer-A20]
binding result [1]: binds
